± gives the standard deviation of the averaged measurements.
The sequences below were run on Saccharomyces cerevisiae (assay: protein stability index of tFT-peptide fusion (C-terminal peptide) (PSI (0-1 scale)); higher = more stable (slower turnover)). Conditions: genetic background: wild type; temperature: 37 C.
Procedure: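 MPS profiling in S. cerevisiae of the tFT-X12 degron library: putative degron peptides plus stable controls, 12 aa, fused to the C-terminus of a sfGFP-mCherry timer. Cells are FACS-sorted into 8 mCherry/sfGFP bins and deep-sequenced. PSI runs from 0 (unstable) to 1 (stable). Backgrounds are wild type, das1Δ and doa10Δ at 30 °C, and wild type, das1Δ, cdc34-1 and cdc53-1 at 37 °C; 2-3 technical replicates each.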
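Also: PSI is a weighted mean of sequencing reads over stability bins, variants kept only with over 10 reads, mCherry proximal and sfGFP distal, peptide attached via GGGS linker.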

Row | Sequence | protein stability index
1 | FVFFRFSLLFFF | 0.356 ± 0.014
2 | FVSVAGFIVVVV | 0.498 ± 0.0068
3 | FVVGFVCSMVWG | 0.2266 ± 0.0022
4 | FVVHPARYYLVL | 0.489 ± 0.014
5 | FVVSCLSWVFLF | 0.127 ± 0.026
6 | FVVWKDVLVMVR | 0.257 ± 0.0093
7 | FWCVFVFFVCVG | 0.349 ± 0.017
8 | FWGRAGVWRLKG | 0.595 ± 0.022
9 | FWSARAVVWWCW | 0.574 ± 0.039
10 | FYFRSSFFTICF | 0.446 ± 0.017
11 | FYPLPASIPDFA | 0.72 ± 0.011
12 | FYSLVQAWSKAP | 0.627 ± 0.018
13 | GCGWVFWVVDWG | 0.539 ± 0.026
14 | GCVMSVCSLAVS | 0.54537 ± 2.2e-05
15 | GCYWPKTLGILC | 0.56 ± 0.032
16 | GGFLLRGLFLFL | 0.63 ± 0.015
17 | GGHGGRRRKGVG | 0.439 ± 0.013
18 | GGMVRSCLWCFV | 0.585 ± 0.0078
19 | GGSHVWKFYRNF | 0.5523 ± 0.0027
20 | GGVFYVFFVFVG | 0.258 ± 0.013

Row | Sequence | protein stability index
21 | GGVVAACRGGIG | 0.374 ± 0.0091
22 | GGVWSAFAVWVC | 0.0546 ± 0.014
23 | GGWGSSLGVWVG | 0.4022 ± 0.0038
24 | GIANHAMVIVVL | 0.468 ± 0.033
25 | GIPVRRLLFLVA | 0.311 ± 0.021
26 | GKWVWSSFVWFG | 0.0945 ± 0.0042
27 | GLFCCFLCLSVF | 0.275 ± 0.017
28 | GLFVGCWVFLVL | 0.486 ± 0.015
29 | GLIICRRCLWCC | 0.255 ± 0.01
30 | GLLSLSGLRWFC | 0.462 ± 0.012
31 | GLSWRLVWVVII | 0.0493 ± 0.0093
32 | GMNGLFFIAMLG | 0.398 ± 0.015
33 | GRLVPVILLKLV | 0.0817 ± 0.0024
34 | GRRPVVDFLPCL | 0.742 ± 0.023
35 | GSITFFKMVQSG | 0.687 ± 0.011
36 | GSLPERPLRYVC | 0.148 ± 0.016
37 | GSRRYYFTWVYQ | 0.0876 ± 0.024
38 | GTEFSNVITYLV | 0.6103 ± 0.0027
39 | GTLVFTYLVLRC | 0.229 ± 0.0083
40 | GTRAGNPDRQRS | 0.706 ± 0.016

Row | Sequence | protein stability index
41 | GVRAGVRRAGVG | 0.402 ± 0.0045
42 | GVRRRQLIWSVC | 0.28 ± 0.011
43 | GVVCWLVVTGFL | 0.463 ± 0.052
44 | GVVVGVLLVCGW | 0.4614 ± 0.0016
45 | HCNRLIFWYKCT | 0.298 ± 0.0068
46 | HDLRRRVVSVMV | 0.47615 ± 0.00044
47 | HFLRYCSWFGLL | 0.353 ± 0.0095
48 | HNLIRKHAKESS | 0.459 ± 0.054
49 | HPLYWRCVVVLN | 0.0862 ± 0.015
50 | HSPPVPFPPPTS | 0.694 ± 0.024
51 | HVRLRFQPVLFV | 0.5139 ± 0.0024
52 | HVSVIRRGICCA | 0.3675 ± 0.0027
53 | ICQLLKFPLFWC | 0.4916 ± 0.0032
54 | ICSRCLVTVLSC | 0.367 ± 0.015
55 | ICWVSLYFSMLV | 0.464 ± 0.028
56 | IFAWPFSATIPW | 0.788 ± 0.032
57 | IFFYPFLIFCFV | 0.332 ± 0.012
58 | IFVLLSYYPLFV | 0.391 ± 0.0059
59 | IGSARIKLLCYH | 0.331 ± 0.031
60 | ILHRRCGLLLQI | 0.4161 ± 0.0032

These sequences were tested on Saccharomyces cerevisiae in the same assay as above. Conditions: genetic background: wild type; temperature: 30 C.

Row | Sequence | protein stability index
61 | FVFFRFSLLFFF | 0.337 ± 0.049
62 | FVSVAGFIVVVV | 0.4076 ± 0.00077
63 | FVVGFVCSMVWG | 0.144 ± 0.016
64 | FVVHPARYYLVL | 0.4265 ± 0.0029
65 | FVVSCLSWVFLF | 0.175 ± 0.024
66 | FVVWKDVLVMVR | 0.298 ± 0.029
67 | FWCVFVFFVCVG | 0.275 ± 0.01
68 | FWGRAGVWRLKG | 0.334 ± 0.025
69 | FWSARAVVWWCW | 0.477 ± 0.051
70 | FYFRSSFFTICF | 0.398 ± 0.024
71 | FYPLPASIPDFA | 0.7216 ± 0.0018
72 | FYSLVQAWSKAP | 0.501 ± 0.018
73 | GCGWVFWVVDWG | 0.4431 ± 0.0038
74 | GCVMSVCSLAVS | 0.486 ± 0.013
75 | GCYWPKTLGILC | 0.465 ± 0.004
76 | GGFLLRGLFLFL | 0.525 ± 0.049
77 | GGHGGRRRKGVG | 0.41 ± 0.046
78 | GGMVRSCLWCFV | 0.432 ± 0.01
79 | GGSHVWKFYRNF | 0.4225 ± 0.0038
80 | GGVFYVFFVFVG | 0.195 ± 0.0076

Row | Sequence | protein stability index
81 | GGVVAACRGGIG | 0.346 ± 0.04
82 | GGVWSAFAVWVC | 0.133 ± 0.0023
83 | GGWGSSLGVWVG | 0.253 ± 0.011
84 | GIANHAMVIVVL | 0.404 ± 0.04
85 | GIPVRRLLFLVA | 0.292 ± 0.051
86 | GKWVWSSFVWFG | 0.19 ± 0.0062
87 | GLFCCFLCLSVF | 0.261 ± 0.015
88 | GLFVGCWVFLVL | 0.387 ± 0.061
89 | GLIICRRCLWCC | 0.267 ± 0.05
90 | GLLSLSGLRWFC | 0.276 ± 0.11
91 | GLSWRLVWVVII | 0.103 ± 0.011
92 | GMNGLFFIAMLG | 0.362 ± 0.02
93 | GRLVPVILLKLV | 0.099045 ± 4e-05
94 | GRRPVVDFLPCL | 0.736 ± 0.0074
95 | GSITFFKMVQSG | 0.469 ± 0.023
96 | GSLPERPLRYVC | 0.162 ± 0.01
97 | GSRRYYFTWVYQ | 0.1178 ± 0.00012
98 | GTEFSNVITYLV | 0.493 ± 0.08
99 | GTLVFTYLVLRC | 0.314 ± 0.008
100 | GTRAGNPDRQRS | 0.706 ± 0.013

Row | Sequence | protein stability index
101 | GVRAGVRRAGVG | 0.402 ± 0.011
102 | GVRRRQLIWSVC | 0.241 ± 0.092
103 | GVVCWLVVTGFL | 0.429 ± 0.013
104 | GVVVGVLLVCGW | 0.36 ± 0.0081
105 | HCNRLIFWYKCT | 0.288 ± 0.0074
106 | HDLRRRVVSVMV | 0.372 ± 0.061
107 | HFLRYCSWFGLL | 0.15 ± 0.0097
108 | HNLIRKHAKESS | 0.394 ± 0.085
109 | HPLYWRCVVVLN | 0.15 ± 0.044
110 | HSPPVPFPPPTS | 0.358 ± 0.033
111 | HVRLRFQPVLFV | 0.462 ± 0.0049
112 | HVSVIRRGICCA | 0.374 ± 0.034
113 | ICQLLKFPLFWC | 0.113 ± 0.034
114 | ICSRCLVTVLSC | 0.311 ± 0.017
115 | ICWVSLYFSMLV | 0.406 ± 0.084
116 | IFAWPFSATIPW | 0.784 ± 0.021
117 | IFFYPFLIFCFV | 0.325 ± 0.018
118 | IFVLLSYYPLFV | 0.338 ± 0.018
119 | IGSARIKLLCYH | 0.213 ± 0.0061
120 | ILHRRCGLLLQI | 0.343 ± 0.016
